Data as given in patent US20120328616A1.

Target: human FGFR1c/human β-Klotho complex (FGF21 receptor) (human) (UniProt P11362)
Experiment: cell-based or functional assay

human FGF21 (ligand)
EC50, pERK Human Adipocyte Assay: 0.623 nM
